Like-named read-outs stand apart in the source and are kept apart here.

The values below come from US20240124590A1 (ULTRAHUMAN EIGHT, published 2024).

The target in assay [1] is T1, cynomolgus monkey PD1 human Fc tagged recombinant protein (cynomolgus monkey, UniProt Q15116 25-170 (human entry), limits assumed).
T1 construct: also called cyPD1-Fc; cyPD-1-Fc; not shown: human Fc tag
T1 chain: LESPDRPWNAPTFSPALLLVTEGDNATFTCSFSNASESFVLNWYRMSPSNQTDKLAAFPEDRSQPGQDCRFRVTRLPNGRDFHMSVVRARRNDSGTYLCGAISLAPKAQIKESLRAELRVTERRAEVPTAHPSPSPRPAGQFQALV
As to the kind of experiment: direct ELISA, IgG1null on coated PD1-Fc. The protocol: (§1) Binding and cross-reactivity of the lead panel to the recombinant proteins was initially assessed by binding ELISA. The human PD1 human Fc tagged recombinant protein and the cynomolgus monkey PD1 human Fc tagged recombinant protein were coated to the surface of MaxiSorp™ flat-bottom 96 well plate at 1 μg/ml. […] The Fabs were detected using mouse anti-c-myc antibody followed by donkey anti-mouse IgG conjugated to horseradish peroxidase. The IgGs were detected using the mouse anti-human IgG conjugated to horseradish peroxidase. Binding signals were visualized with 3,3′,5,5′-Tetrannethylbenzidine Substrate Solution (TMB) and the absorbance measured at 450 nm.
(§2) The purified IgGs described above were then tested for binding to human and cyno PD1-Fc in direct titration ELISA format. […] As the ELISA EC50 values for directly binding IgGs are strongly influenced by avidity, rather than true 1:1 binding affinity, we then proceeded to perform higher-sensitivity, solution-phase epitope competition and Biacore binding affinity determinations, as outlined below.
(In an ELISA, binding on a coated surface is turned into a signal by an enzyme label.)

For assay [2], the target named is T2, human PD1 human Fc tagged recombinant protein (human, UniProt Q15116 25-170, limits assumed).
T2 construct: also called huPD1-Fc; huPD-1-Fc; not shown: human Fc tag
T2 sequence (Q15116 25-170 limits assumed): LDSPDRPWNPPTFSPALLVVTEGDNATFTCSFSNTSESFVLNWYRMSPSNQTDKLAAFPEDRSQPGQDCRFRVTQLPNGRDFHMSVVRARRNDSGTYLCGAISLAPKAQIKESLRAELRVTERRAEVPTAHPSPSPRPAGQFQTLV
As to the kind of experiment: direct ELISA, IgG1null on coated PD1-Fc. The protocol: as §1, §2

The target in assay [3] is T3, cynomolgus monkey PD1 His tag (monomeric) (cynomolgus monkey, UniProt Q15116 25-170 (human entry), limits assumed).
T3 construct: Soluble monomeric analyte; whole entry named; also called monomeric cyno PD1; not shown: His tag
T3 chain: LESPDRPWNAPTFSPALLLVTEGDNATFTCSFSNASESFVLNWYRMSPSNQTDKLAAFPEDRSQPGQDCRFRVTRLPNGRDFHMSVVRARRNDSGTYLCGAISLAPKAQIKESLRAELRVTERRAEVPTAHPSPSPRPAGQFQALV
Put plainly: SPR (Biacore), IgG captured, monomeric PD1-His analyte. The protocol: (§3) Affinity (KD) of purified IgGs was determined via SPR with antigen in-solution on a Biacore 3000 (GE). A mouse anti-human antibody (CH1 specific) was immobilized on a CM5 Sensor Chip to a level of 2000 RU in acetate buffer at pH 4.5 using amine coupling following the Wizard instructions for two channels. One channel was used for background signal correction. The standard running buffer HBS-EP pH 7.4 was used. Regeneration was performed with a single injection of 10 μl of 10 mM Glycine at pH 1.5 at 20 μl/minute. IgG samples were injected for 2 minutes at 50 nM at 30 μl/min followed by and off-rate of 60 seconds. […] The obtained sensorgrams were analysed using the Biacore 3000 evaluation (BIAevaluation) software. The KD was calculated by simultaneous fitting of the association and dissociation phases to a 1:1 Langmuir binding model.
(§4) Biacore analyses of binding affinity was performed for all IgGs to solution-phase, monomeric human and cyno PD1 proteins.
In general terms: SPR reads the build-up and loss of mass on a sensor chip optically.

For assay [4], the target named is T4, human PD1 His tagged (monomeric) (human, UniProt Q15116 25-170, limits assumed).
T4 construct: Soluble monomeric analyte; whole entry named; also called monomeric human PD1; not shown: His tag
T4 sequence (Q15116 25-170 limits assumed): as the sequence (Q15116 25-170 limits assumed) above
Described as above. As to the method:
as §3, §4

In assay [5] the target is T1, cynomolgus monkey PD1 human Fc tagged …. As to the kind of experiment: direct ELISA, IgG1null on coated PD1-Fc. The protocol:
as §1, §2

Assay [6] concerns the target T2, human PD1 human Fc tagged recombinant …. As to the kind of experiment: direct ELISA, IgG1null on coated PD1-Fc. As to the method:
as §1, §2
The source holds these as a separate data set.

For assay [7], the target named is T5, biotinylated human PD1-His/AviTag (human, UniProt Q15116 25-170, limits assumed, biotinylated).
T5 construct: Alphascreen antigen; whole entry named; also called biotinylated monomeric human PD1; not shown: His/AviTag
T5 sequence (Q15116 25-170 limits assumed): as the sequence (Q15116 25-170 limits assumed) above
As to the kind of experiment: Alphascreen competition vs IgG1-Mab005 (humanized). The protocol: The AlphaScreen assay (Perkin Elmer) was performed in a 25 μl final volume in 384-well white microtiter plates (Greiner). The reaction buffer contained 1×PBS pH 7.3 (Oxoid, Cat. nr. BRO014G) and 0.05% (v/v) Tween® 20 (Sigma, Cat. nr. P9416). Purified IgG samples were titrated in three fold serial dilutions starting at 500 nM final concentration and incubated with biotinylated human PD1-His/AviTag at 0.6 nM final concentration for 20 minutes at room temperature. […] Followed by addition of the Streptavidin Donor beads at 20 μg/ml (final concentration) and incubation for 30 minutes at room temperature. The emission of light was measured in the EnVision multilabel plate reader (Perkin Elmer) and analysed using the EnVision manager software. Values were reported as Counts Per Second (CPS) and corrected for crosstalk.
A general note: Alpha assays give light when donor and acceptor beads are brought close together.

The target in assay [8] is T6, human PD1 expressed on cells (human, UniProt Q15116 25-288).
T6 construct: also called human PD1+ CHO cells; PD1-transfected HEK293 cells
T6 sequence (Q15116 25-288 limits assumed): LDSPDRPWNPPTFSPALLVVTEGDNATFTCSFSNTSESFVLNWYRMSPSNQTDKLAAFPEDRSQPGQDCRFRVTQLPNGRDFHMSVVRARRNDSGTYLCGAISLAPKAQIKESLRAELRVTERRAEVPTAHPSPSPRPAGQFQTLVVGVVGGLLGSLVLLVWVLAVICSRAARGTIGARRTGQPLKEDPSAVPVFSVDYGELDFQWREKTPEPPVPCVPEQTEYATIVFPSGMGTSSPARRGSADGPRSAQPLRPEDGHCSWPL
As to the kind of experiment: flow cytometry, PD1 CHO-K1 cells. The protocol:
(§5) Purified IgGs were tested in FACs for binding to human and cyno PD1 expressed on CHO-K1 stable cell lines and CHO-K1 wild-type cells. […] Binding of IgGs was detected with a mouse anti-human IgG conjugated to FITC. Results were analyzed by examining the Mean Fluorescence Intensity (MFI) of 10000 cells per sample in the BL-1 channel detector of a flow cytometer (Attune™ NxT Acoustic Focusing Cytometer, Invitrogen/ThermoFisher Scientific).
(§6) Antibodies to PD1 were analysed for concentration-dependent binding at the cell surface via flow cytometry. Initial analyses were performed on CHO cells stably-transfected with human or cyno PD1.

In assay [9] the target is T7, cyno PD1 expressed on CHO-K1 cells (cynomolgus monkey, UniProt Q15116 25-288 (human entry)).
T7 construct: also called cyno PD1+ CHO cells
T7 chain: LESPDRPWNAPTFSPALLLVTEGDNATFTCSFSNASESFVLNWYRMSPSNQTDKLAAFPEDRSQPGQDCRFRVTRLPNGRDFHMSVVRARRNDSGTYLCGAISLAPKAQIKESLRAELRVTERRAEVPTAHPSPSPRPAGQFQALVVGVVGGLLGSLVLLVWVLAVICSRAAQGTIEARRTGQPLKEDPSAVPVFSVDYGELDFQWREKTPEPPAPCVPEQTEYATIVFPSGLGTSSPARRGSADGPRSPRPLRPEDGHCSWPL
As to the kind of experiment: flow cytometry, PD1 CHO-K1 cells. As to the method:
as §5, §6

The target of assay [10] is T3, cynomolgus monkey PD1 His tag …. As to the kind of experiment: SPR (Biacore); cyno KD against human KD. The protocol:
as §3, §4

The target in assay [11] is T6, human PD1 expressed on cells. As to the kind of experiment: cell-based or functional assay.

B1: IgG1-Mab005 (humanized) (antibody, V domains shown)
VH: EVQLVESGGGLVQPGGSLRLSCAASGFTFSSYMMSWVRQAPGKGLEWVATISGGGANTYYPDSVKGRFTISRDNAKNSLYLQMNSLRAEDTAVYYCARQLYYFDYWGQGTTVTVSS
VL: DIQMTQSPSSLSASVGDRVTITCLASQTIGTWLTWYQQKPGKAPKLLIYTATSLADGVPSRFSGSGSGTDFTLTISSLQPEDFATYYCQQVYSIPWTFGGGTKVEIK
notes: tested as human IgG1null (IgG1 with L234A, L235A, G237A) with human Ckappa; also called Mab005-IgG1 (humanized); Mab005-IgG1 (hum)
Broadly, the EC50 is the concentration that produces a half-maximal response. By Kd is commonly meant the constant that tells how readily two partners part at equilibrium. In general, koff refers to the first-order rate constant of dissociation. The kon is a measure of how fast the partners come together. One may read the IC50 as the midpoint of a concentration-inhibition curve. Turning to B1, the EC50 was determined as 0.132 nM in assay [1]; 0.114 nM in [2]; 0.152 nM in [5]; 0.137 nM in assay [6]; 2.32 nM in [8]; 6.53 nM in [9]. Besides, the Kd turned out to be 32 nM in assay [3] and 4 nM in assay [4]. For the same molecule, the koff in assay [3] worked out at 0.0028 s⁻¹; in assay [4] it was 0.00047 s⁻¹. For the same molecule, the association rate constant (kon) amounted to 88000 M⁻¹ s⁻¹ in [3] and 120000 M⁻¹ s⁻¹ in assay [4]. This molecule showed an IC50 in assay [7] of 2.14 nM. In addition, the “human/cyno affinity differential (fold)” value in assay [10] is 8 fold. The “EC50 (ng/ml), IgG1null blockade of human PD1/PD-L1” value in assay [11] amounted to 285 ng/mL.
